Measurements from publication PMC9892617, “Small-angle x-ray and neutron scattering of MexR and its complex with DNA supports a conformational selection binding model” (Biophysical Journal, 2022).

T1: MexR (Pseudomonas aeruginosa, UniProt P52003 5-139)
T1 sequence: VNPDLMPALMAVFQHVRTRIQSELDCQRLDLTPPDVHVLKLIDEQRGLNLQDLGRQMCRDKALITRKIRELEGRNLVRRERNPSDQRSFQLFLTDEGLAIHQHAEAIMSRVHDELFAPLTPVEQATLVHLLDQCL

B1: MexR (Val5-Leu139) (domain or fragment)
chain: VNPDLMPALMAVFQHVRTRIQSELDCQRLDLTPPDVHVLKLIDEQRGLNLQDLGRQMCRDKALITRKIRELEGRNLVRRERNPSDQRSFQLFLTDEGLAIHQHAEAIMSRVHDELFAPLTPVEQATLVHLLDQCL
notes: MexR, transcriptional repressor of the MarR family, Pseudomonas aeruginosa, UniProt P52003, residues Val5-Leu139; Homodimer in solution; also called apo-MexR; hMexR; source: E. coli BL21 Rosetta 2(DE3), purified (Ni-NTA IMAC, TEV cleavage, reverse IMAC, Superdex 75)
B2: PII DNA (dsDNA)
DNA 1: CTTATTTTAGTTGACCTTATCAACCTTGTTTCAG
DNA 2: CTGAAACAAGGTTGATAAGGTCAACTAAAATAAG

Experiments:
[1] = target: the molecule itself; test: SEC-MALS; Superdex 75 Increase 5/150, 20 mM HEPES pH 7.1, 150 mM NaCl, 10 mM DTT, 1% v/v glycerol, 0.3 mL/min, 20°C; MALLS with RI detection
MexR = target: T1, MexR; test: ITC; one MexR dimer per duplex; 20 C; ITC: 20 mM sodium phosphate pH 7.1, 150 mM NaCl, 5 mM beta-mercaptoethanol, 20 C; complex sample buffer: 20 mM sodium phosphate pH 7.1, 150 mM NaCl, 10 mM DTT; conditions: protein: recombinant; tags: 6xHis-thioredoxin tag removed with TEV; chain copies: 2; blunt

| Binder | stoichiometry N [1] | Kd (MexR) |
| --- | --- | --- |
| B1 | 2 |  |
| B2 |  | 240 nM |
